Test results: the supplement of paper PMC7877785
± gives the uncertainty stated by the source.

Assay: self-splicing fitness, log relative to wild type (ln ratio); higher = more splicing; Tetrahymena group I intron in knt gene, E. coli kanamycin selection, DiMSum; sequences stand for … in CUCUCU…GGAGGGAAAAGUUAUCAGGCAUGCACCUGGUAGCUAGUCUUUAAACCAAUAGAUUGCAUCGGUUUAAAAGGCAAGACCGUCAAAUUGCGGGAAAGGGGUCAACAGCCGUUCAGUACCAAGUCUCAGGGGAAACUUUGAGAUGGCCUUGCAAAGGGUAUGGUAAUAAGCUGACGGACAUGGUCCUAACCACGCAGCCAAGUCCUAAGUCAACAGAUCUUCUGUUGAUAUGGAUGCAGUUCACAGACUAAAUGUCGGUCGGGGAAGAUGUAUUCUUCUCAUAAGAUAUAGUCGGACCUCUCCUUAAUGGGAGCUAGCGGAUGAAGUGAUGCAACACUGGAGCCGCUGGGAACUAAUUUGUAUGCGAAAGUAUAUUGAUUAGUUUUGGAGUACUCGUGGUCG
Procedure, shortened: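 DiMSum derived fitness as the error-weighted combination of fold changes across replicates, kanamycin versus no kanamycin, normalised to wild type. E. coli BL21(DE3) held the library, which randomised all eight P1ex-region intron nucleotides within the knt kanamycin-resistance gene on pET-22b(+). Six replicate transformations grew overnight at 37°C or 30°C on LB agar with or without 25 μg/mL kanamycin, also containing 100 μg/mL carbenicillin, 50 μM IPTG and 0.2% rhamnose, and pooled colonies were amplicon-sequenced on an Illumina HiSeq 2500.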

Row | Sequence | self-splicing fitness (ln) (30 °C) | self-splicing fitness (ln) (37 °C)
1 | GGACAGCAAUAUUACGGUGA | -0.838 ± 0.063 | -0.167 ± 0.071
2 | AGUUAGCAAUAUUACGUCUA | -0.594 ± 0.12 | -0.0617 ± 0.1
3 | ACAGAGCAAUAUUACGAUUA | -3.25 ± 0.23 | -2.38 ± 0.26
4 | CCCGAGCAAUAUUACGGCAG | -2.53 ± 0.29 | -2.65 ± 0.44
5 | AAUAAGCAAUAUUACGAUGU | -0.62 ± 0.076 | -0.682 ± 0.11
6 | AGUCAGCAAUAUUACGCGCU | -3.02 ± 0.14 | -1.86 ± 0.21
7 | GUAGAGCAAUAUUACGCCUU | -0.0606 ± 0.13 | 0.0599 ± 0.17
8 | UAAAAGCAAUAUUACGGCGA | -0.67 ± 0.11 | 0.453 ± 0.13
9 | CUCGAGCAAUAUUACGACCA | -3.07 ± 0.26 | -2.22 ± 0.49
10 | UCGAAGCAAUAUUACGUGCC | -2.86 ± 0.42 | 
11 | CUGAAGCAAUAUUACGCUUU | -3.4 ± 0.31 | -3.78 ± 0.42
12 | UAGGAGCAAUAUUACGUGUG | -2.86 ± 0.15 | -1.72 ± 0.15
13 | CGUGAGCAAUAUUACGAUUC | -3.25 ± 0.23 | -2.58 ± 0.44
14 | CGUGAGCAAUAUUACGCAAC | -2.77 ± 0.36 | -2.18 ± 0.33
15 | CGUAAGCAAUAUUACGCGUA | -3 ± 0.28 | -2.9 ± 0.2
16 | AGUGAGCAAUAUUACGGCAA | -2.12 ± 0.21 | -0.889 ± 0.2
17 | AGGUAGCAAUAUUACGCGAC | -2.971 ± 0.029 | -1.8 ± 0.04
18 | CCUUAGCAAUAUUACGAGUC |  | -2.7 ± 0.28
19 | GGCAAGCAAUAUUACGGUAU | -1.17 ± 0.068 | -0.119 ± 0.077
20 | UUCUAGCAAUAUUACGUCGG | -3.54 ± 0.26 | -3.1 ± 0.29
21 | GACCAGCAAUAUUACGUAGC | -0.693 ± 0.069 | -0.496 ± 0.082
22 | UACCAGCAAUAUUACGCGUU | -1.64 ± 0.07 | -0.917 ± 0.086
23 | GUGAAGCAAUAUUACGGAUU | -0.624 ± 0.1 | -0.344 ± 0.12
24 | CGACAGCAAUAUUACGGGAG | -3.21 ± 0.15 | -1.97 ± 0.13
25 | ACCCAGCAAUAUUACGAAAA | -1.66 ± 0.097 | -1.83 ± 0.13
26 | UAGUAGCAAUAUUACGUUAG | -1.52 ± 0.17 | -1.97 ± 0.21

Row | Sequence | self-splicing fitness (ln) (30 °C) | self-splicing fitness (ln) (37 °C)
27 | UGGUAGCAAUAUUACGAACA | -0.325 ± 0.15 | 0.205 ± 0.27
28 | CUGGAGCAAUAUUACGGUAG | -2.51 ± 0.22 | -0.514 ± 0.16
29 | AUAUAGCAAUAUUACGAUGA | -0.834 ± 0.16 | -0.885 ± 0.17
30 | UUAAAGCAAUAUUACGUCGG | -0.114 ± 0.074 | 0.43 ± 0.091
31 | UGAAAGCAAUAUUACGUGGU | -3.22 ± 0.17 | -2.55 ± 0.23
32 | AACCAGCAAUAUUACGCCAG | -2.46 ± 0.14 | -1.72 ± 0.18
33 | AAUCAGCAAUAUUACGCAGA | -1.04 ± 0.068 | -0.32 ± 0.07
34 | CUGCAGCAAUAUUACGAACA | -3.3 ± 0.24 | -1.49 ± 0.14
35 | ACGAAGCAAUAUUACGUACU | -0.484 ± 0.064 | -0.0153 ± 0.089
36 | GGGUAGCAAUAUUACGUAGU | -2.23 ± 0.085 | -0.762 ± 0.093
37 | AGCUAGCAAUAUUACGGGUA | -1.27 ± 0.073 | -0.597 ± 0.082
38 | UGCUAGCAAUAUUACGUAAA | -1.9 ± 0.094 | -1.6 ± 0.13
39 | CAAUAGCAAUAUUACGGAAC | -3.98 ± 0.33 | -3.27 ± 0.47
40 | CACUAGCAAUAUUACGAUGA | -1.85 ± 0.16 | -1.01 ± 0.14
41 | GUACAGCAAUAUUACGCGCC | -2.15 ± 0.21 | -1.49 ± 0.34
42 | ACAUAGCAAUAUUACGGGGU | -3.67 ± 0.17 | -1.81 ± 0.14
43 | CCCUAGCAAUAUUACGCCGG | -3.09 ± 0.17 | -1.6 ± 0.22
44 | AGGUAGCAAUAUUACGUUGU | -3.385 ± 0.02 | -1.95 ± 0.035
45 | ACCAAGCAAUAUUACGGCGA | -0.805 ± 0.064 | -0.254 ± 0.072
46 | UAGAAGCAAUAUUACGCAAC | -1.44 ± 0.18 | -2.33 ± 0.42
47 | AAUUAGCAAUAUUACGCUCA | -0.656 ± 0.12 | -0.204 ± 0.16
48 | CCGCAGCAAUAUUACGUACA | -2.89 ± 0.16 | -2.4 ± 0.23
49 | CCAUAGCAAUAUUACGUUUU | -3.58 ± 0.16 | -2.75 ± 0.17
50 | GUAAAGCAAUAUUACGAUGA | -0.0816 ± 0.064 | -0.318 ± 0.068
51 | GGACAGCAAUAUUACGUUGG | -1.69 ± 0.088 | -0.723 ± 0.11
52 | UCUUAGCAAUAUUACGAAGC | -2.94 ± 0.21 | -2.05 ± 0.17

Row | Sequence | self-splicing fitness (ln) (30 °C) | self-splicing fitness (ln) (37 °C)
53 | UGCAAGCAAUAUUACGGACG | -0.345 ± 0.068 | -0.0664 ± 0.087
54 | GUACAGCAAUAUUACGUGUU | -2.74 ± 0.075 | -1.54 ± 0.1
55 | AGAGAGCAAUAUUACGUCAU |  | -1.01 ± 0.16
56 | UGUAAGCAAUAUUACGCCUC | -3.28 ± 0.32 | -2.25 ± 0.24
57 | GUAUAGCAAUAUUACGGCCG | -2.76 ± 0.21 | -1.09 ± 0.17
58 | GGGCAGCAAUAUUACGUUAA | -1.19 ± 0.1 | -0.46 ± 0.11
59 | GGUCAGCAAUAUUACGGUCC | -3.1 ± 0.39 | -1.81 ± 0.37
60 | UUAAAGCAAUAUUACGCUAA | -0.626 ± 0.1 | -0.111 ± 0.12
61 | GCGAAGCAAUAUUACGAAUU | -2.58 ± 0.16 | -2.38 ± 0.3
62 | GCUAAGCAAUAUUACGGUAG | -3.12 ± 0.21 | -3.35 ± 0.3
63 | GCCCAGCAAUAUUACGCGCC | -4.19 ± 0.42 | -0.613 ± 0.19
64 | AAUUAGCAAUAUUACGAGUA | -1.86 ± 0.24 | -1.16 ± 0.18
65 | AAGGAGCAAUAUUACGCUUA | -1.49 ± 0.17 | -1.1 ± 0.16
66 | GGUGAGCAAUAUUACGCACU | -3.35 ± 0.44 | -2.9 ± 0.43
67 | CUCGAGCAAUAUUACGGCAU | -2.71 ± 0.19 | -3.09 ± 0.37
68 | AUGUAGCAAUAUUACGCAAU | -1.49 ± 0.13 | -1.01 ± 0.23
69 | UAUAAGCAAUAUUACGAAGA | -2.72 ± 0.24 | -1.66 ± 0.16
70 | AGUCAGCAAUAUUACGCUUA | -0.891 ± 0.12 | 0.278 ± 0.14
71 | CUCGAGCAAUAUUACGUACC | -2.32 ± 0.26 | -0.911 ± 0.39
72 | CACGAGCAAUAUUACGUAAG | -3.62 ± 0.14 | -1.82 ± 0.11
73 | CGCUAGCAAUAUUACGACUU | -2.41 ± 0.12 | -0.983 ± 0.15
74 | CUGGAGCAAUAUUACGCACG | -0.0736 ± 0.32 | -1.08 ± 0.29
75 | UGCGAGCAAUAUUACGGUCA | -0.764 ± 0.071 | -0.397 ± 0.077
76 | GCGUAGCAAUAUUACGUCCA | -1.49 ± 0.099 | -0.365 ± 0.1
77 | CUUGAGCAAUAUUACGCUCA | -1.12 ± 0.32 | -2.33 ± 0.29
